The record followed here is patent US11370846B2, “Compositions and methods to regulate Renalase in the treatment of cancer” (Yale University, priority 2014, dated 2022).

Like-named read-outs stand apart in the source and are kept apart here.

Assay [1] has as its system renalase-1 and renalase-2. The assay is described as follows: Renalase isoform specificity of anti-renalase antibodies. It counts as binding, human. The following applies: renalase-1 vs renalase-2. On the procedure:
Peptides were used as immunogens. The peptides generated ranged from 9 to 21 amino acids and corresponded to regions of the renalase-1 and renalase-2 proteins. […] Each peptide was conjugated to the adjuvant KLH via the cysteine and used to immunize 6 rabbits. Antiserum collected from each animal was screened for anti-renalase antibody titer by ELISA assay using both the relevant peptide (BSA-conjugate) or full length renalase-1 or 2. The antisera were also tested for their ability to detect endogenous renalase in tissue lysates by western blot. Using these screening criteria the animals producing antibodies with the preferred characteristics were selected. In some examples and for some peptides, several animals produced antibodies with the required specificity. […] Polyclonal antibodies raised against all of the peptides were generated by purification of total IgG from terminal bleeds by protein G chromatography followed by further purification on peptide affinity chromatography. Further and using standard procedures, lymphocytes from the spleens of selected animals were fused to myeloma cells for hybridoma generation. The hybridoma supernatants were screened for binding to both the peptides against which they were raised and secondarily screened against whole renalase protein. Selected hybridomas were sub-cloned and expanded for antibody purification. The monoclonal antibodies were purified from conditioned hybridoma culture supernatant by protein A affinity chromatography.

For a further assay, the system named is melanoma cells. Description: Melanoma cell lines in culture, viability/growth. Type of assay: cell-based, human. On the procedure: FIG. 19A through FIG. 19D are a series of images and charts showing that inhibition of RNLS signaling is cytotoxic to melanoma cells in vitro. […] FIG. 19B comprises two charts depicting relative cell viability: Left panel: Cells were treated with indicated antibodies for 72 hrs and cell viability was determined using WST-1; m28-RNLS (also known as 1D-28-4), m37-RNLS (also known as 1D-37-10): monoclonal antibodies raised against RNLS peptide RP220; Right panel: A375.S2 cells treated with increasing doses of m28-RNLS for 72 hrs and cell viability determined with a WST-1 assay; n=6, * indicates p<0.05 and ** indicates p<0.005. FIG. 19C comprises representative photos of A375.S2, SkMe128, and SkMe15 after 72 hrs incubation with either control rabbit IgG or m28-RNLS. FIG. 19D is a chart depicting relative cell viability, comprising amino acid (AA) sequence of RNLS peptide antagonist (RP220A).
For additional studies, cell viability was determined using WST-1 reagent (Roche Diagnostics, Indianapolis, Ind., USA) according to the manufacturers' instruction. Absorbances were read using a microplate reader (Power Waves XS, BioTek Instruments, Winooski, Vt., USA).

The subject of the next assay is PDACC. Description: PDACC growth with anti-RNLS antibodies, WST-1. The following applies: 72 hrs. Type of assay: cell-based, human. As for the experimental part:
FIG. 25A through FIG. 25E are a series of charts and images showing that inhibition of RNLS signaling is cytotoxic to cancer cells in vitro and in vivo. FIG. 25A is a chart showing relative cell viability following transient transfection of Panc1 cells using a RNLS-specific siRNA, or a non-specific control siRNA, and cell viability assayed 96 h later using the WST-1 reagent; n=6, ** indicates p<0.001. FIG. 25B is a chart showing relative cell viability when cells were treated with indicated antibodies for 72 hrs and cell viability determined using WST-1; m28-RNLS and m37-RNLS: monoclonal antibodies raised against RNLS peptide RP220, ab31291: Abcam polyclonal antibody raised against a partial sequence of RP-220; n=6, * indicates p<0.005. […] FIG. 25D is a chart showing tumor volume increase after athymic nude mice received subcutaneous injection of Panc1 cells transduced with RNLS shRNA (sh-RNLS) or control (sh-Control); tumor volume measured every […] for up to 30 days, n=6 each; * indicates p<0.05. FIG. 25E is chart showing tumor volume increase after nude mice were xenografted with BxPC3; tumor volume measured prior to treatment every 3-4 days with 2 mg/kg of either rabbit IgG as a negative control or with m28-RNLS, n=10, * indicates p<0.05.
(In general: Tetrazolium assays rely on reduction of a dye to a coloured formazan, in cell work by metabolically active cells.)

B1: 1F-26-1: anti-renalase monoclonal specific for renalase-1 (antigen 1F); heavy chain SEQ ID NO:25, light chain SEQ ID NO:26 (antibody)
heavy: METGLRWLLLVAVLKGVQCQSVKESEGGLFKPTDTLTLTCTVSGFSLSSYGVTWVRQAPGNGLEWIGLIGDRGTTFYASWAKSRSTITRNTNLNTVTLKMTRLTAADTATYFCARGSGYGARIWGPGTLVTVSSWQPKAPSVFPLAPCCGDTPSSTVTLGCLVKGYLPEPVTVTWNSGTLTNGVRTFPSVRQSSGLYSLSSVVSVTSSSQPVTCNVAHPATNTKVDKTVAPSTCSKPTCPPPELLGGPSVFIFPPKPKDTLMISRTPEVTCVVVDVSQDDPEVQFTWYINNEQVRTARPPLREQQFNSTIRVVSTLPIAHQDWLRGKEFKCKVHNKALPAPIEKTISKARGQPLEPKVYTMGPPREELSSRSVSLTCMINGFYPSDISVEWEKNGKAEDNYKTTPAVLDSDGSYFLYSKLSVPTSEWQRGDVFTCSVMHEALHNHYTQKSISRSPGK
light: MDTRAPTQLLGLLLLWLPGATFAQVLTQTPSPVSAAVGGTVTINCQSSQSVYKNNYLAWYQQKPGQPPKLLIYETSKLASGVPPRFSGSGSGTQFTLTISSVQCDDAATYYCQGGYSGVDFMAFGGGTEVVVKGDPVAPTVLIFPPSADLVATGTVTIVCVANKYFPDVTVTWEVDGTTQTTGIENSKTPQNSADCTYNLSSTLTLTSTQYNSHKEYTCKVTQGTTSVVQSFNRGDC
modifications: oryctolagus cuniculus
Consider B1, for which, in assay [1], the renalase isoform specificity entry was “specific for renalase-1”.

B2: 1F-42-7: anti-renalase monoclonal specific for renalase-1 (antigen 1F); heavy chain SEQ ID NO:33, light chain SEQ ID NO:34 (antibody)
heavy: METGLRWLLLVAVLKGVQCQSVKESEGGLFKPTDTLTLTCTVSGFSLTTYGVTWVRQAPGNGLEWIGLIGDRGTTYYASWVNGRSTITRNTNLNTVTLKMTRLTAADTATYFCARGSGYGARIWGPGTLVTVASWQPKAPSVFPLAPCCGDTPSSTVTLGCLVKGYLPEPVTVTWNSGTLTNGVRTFPSVRQSSGLYSLSSVVSVTSSSQPVTCNVAHPATNTKVDKTVAPSTCSKPTCPPPELLGGPSVFIFPPKPKDTLMISRTPEVTCVVVDVSQDDPEVQFTWYINNEQVRTARPPLREQQFNSTIRVVSTLPIAHQDWLRGKEFKCKVHNKALPAPIEKTISKARGQPLEPKVYTMGPPREELSSRSVSLTCMINGFYPSDISVEWEKNGKAEDNYKTTPAVLDSDGSYFLYSKLSVPTSEWQRGDVFTCSVMHEALHNHYTQKSISRSPGK
light: MDTRAPTQLLGLLLLWLPGATFAQVLTQTPSPMSAALGGTVTINCQSSQTVYNNNYLSWYQQKPGQPPKLLIYETSKLSSGVPPRFSGSGSGTQFTLTISSVQCDDAATYYCQGGYSGVDFMAFGGGTEVVVKGDPVAPTVLIFPPSADLVATGTVTIVCVANKYFPDVTVTWEVDGTTQTTGIENSKTPQNSADCTYNLSSTLTLTSTQYNSHKEYTCKVTQGTTSVVQSFNRGDC
modifications: oryctolagus cuniculus
Regarding B2, the renalase isoform specificity result in assay [1] is listed as “specific for renalase-1”.

B3: 3A-5-2: anti-renalase monoclonal specific for renalase-2 (antigen 3A); heavy chain SEQ ID NO:41, light chain SEQ ID NO:42 (antibody)
heavy: METGLRWLLLVAVLKGVQCQSLEESGGRLVTPGTPLTLTCTVSGFSLNNYHIYWVRQAPGKGLEYIGIIFNGGTYYARWTKGRFTISKTSTTVDLKMTSLTTEDTATYFCARGDGIWGPGTLVTVSLGQPKAPSVFPLAPCCGDTPSSTVTLGCLVKGYLPEPVTVTWNSGTLTNGVRTFPSVRQSSGLYSLSSVVSVTSSSQPVTCNVAHPATNTKVDKTVAPSTCSKPTCPPPELLGGPSVFIFPPKPKDTLMISRTPEVTCVVVDVSQDDPEVQFTWYINNEQVRTARPPLREQQFNSTIRVVSTLPIAHQDWLRGKEFKCKVHNKALPAPIEKTISKARGQPLEPKVYTMGPPREELSSRSVSLTCMINGFYPSDISVEWEKNGKAEDNYKTTPAVLDSDGSYFLYSKLSVPTSEWQRGDVFTCSVMHEALHNHYTQKSISRSPGK
light: MDTRAPTQLLGLLLLWLPGATFAQVLTQTPASVSAAVGGTVTINCQASQSVFNNNYLAWYQQKPGQPPKRLIYSASTLASGVSSRFKGSGSGTEFTLTMSGVECDDAATYYCAGSFDCNSGDCVAFGGGTEVVVKGDPVAPTVLIFPPAADQVATGTVTIVCVANKYFPDVTVTWEVDGTTQTTGIENSKTPQNSADCTYNLSSTLTLTSTQYNSHKEYTCKVTQGTTSVVQSFNRGDC
modifications: oryctolagus cuniculus
For the molecule B3, the renalase isoform specificity result in assay [1] is reported as “specific for renalase-2”.

B4: 1D-37-10: rabbit anti-renalase monoclonal raised against peptide RP-220 (antigen 1D); heavy chain SEQ ID NO:17, light chain SEQ ID NO:18 (antibody)
heavy: METGLRWLLLVAVLKGVQCQSVEESGGRLVTPGGSLTLTCTVSGFSLSDYAIIWVRQAPGKGLEYIAIIGSSGDTFYATWAKGRFTISKTSTTVDLKMTSLTAADTATYFCAPRYAGTTDYHDAFDPWGPGTLVTVSSGQPKAPSVFPLAPCCGDTPSSTVTLGCLVKGYLPEPVTVTWNSGTLTNGVRTFPSVRQSSGLYSLSSVVSVTSSSQPVTCNVAHPATNTKVDKTVAPSTCSKPTCPPPELLGGPSVFIFPPKPKDTLMISRTPEVTCVVVDVSQDDPEVQFTWYINNEQVRTARPPLREQQFNSTIRVVSTLPIAHQDWLRGKEFKCKVHNKALPAPIEKTISKARGQPLEPKVYTMGPPREELSSRSVSLTCMINGFYPSDISVEWEKNGKAEDNYKTTPAVLDSDGSYFLYSKLSVPTSEWQRGDVFTCSVMHEALHNHYTQKSISRSPGK
light: MDTRAPTQLLGLLLLWLPGARCAEVVMTQTPASMEAPMGGTVTIKCQASQNIYNYLSWYQQKPGQPPKLLVYKASTLTSGVPSRFKGSGSGTQFTLTISDLECADAATYYCQINYSIYNHYNIIFGGGTEVVVKGDPVAPTVLIFPPSADLVATGTVTIVCVANKYFPDVTVTWEVDGTTQTTGIENSKTPQNSADCTYNLSSTLTLTSTQYNSHKEYTCKVTQGTTSVVQSFNRGDC
modifications: oryctolagus cuniculus
As for B4, the renalase isoform specificity result in assay [1] was “recognize renalase-1 and renalase-2”. Moreover, the “melanoma cell growth/viability in culture” value in the assay with melanoma cells is reported as “inhibit melanoma cells in culture”; in the assay on melanoma cells (listed as D-37-10), “inhibit melanoma cell growth”; in the assay with melanoma cells (listed as m37-RNLS), “decreased the viability of all (total of 5) melanoma cell lines tested”. Besides, the PDACC growth result in the assay on PDACC was “inhibitory effects”.
